{"source": "paper PMC7521653", "about": "“Structural analysis of the LDL receptor–interacting FERM domain in the E3 ubiquitin ligase IDOL reveals an obscured substrate-binding site” (The Journal of Biological Chemistry, 2020)", "proteins": {"B1": {"name": "IDOL F3ab subdomain (residues 183-283) (domain or fragment, human, UniProt Q8WY64 183-283, looked up)", "chain": "ENYGIEWHSVRDSEGQKLLIGVGPEGISICKDDFSPINRIAYPVVQMATQSGKNVYLTVTKESGNSIVLLFKMISTRAASGLYRAITETHAFYRCDTVTSA", "notes": "IDOL (MYLIP), human, F3ab subdomain, residues 183-283; E. coli codon-optimised gene in pET28(a); The construct holds an incomplete F3c' (279-283 of 279-300); also called FERM F3ab; third lobe of the FERM domain; not shown: His6, N-terminal, cleaved"}}, "target": "the molecule itself", "experiment": "crystal structure; F3ab (183-283), space group P2(1)2(1)2(1), three copies in the asymmetric unit; crystals from 100 mM Hepes, pH 7.0, 10% (w/v) PEG 6000", "data": [{"protein": "B1", "values": [{"measurement": "binding result", "value": "binds"}]}]}
